# Measured values taken from publication PMC10885737 (Journal of molecular biology, 2023).
# Where two headings read alike, the source gives them in different places.
# Columns and labels:
# [1] = target: soluble disulfide-stabilized HIV-1 CA hexamer (A14C/E45C/W184A/M185A) (Human immunodeficiency virus type 1 group M subtype B, UniProt P12493, A146C/E177C/M317A/W316A); experiment: biochemical; format: binding
# [2] = target: disulfide-crosslinked A14C/E45C HIV-1 CA tubes (HIV-1); experiment: co-sedimentation
# [3] = target: soluble, disulfide-crosslinked HIV-1 CA hexamer (A14C/E45C/W184A/M185A) (HIV-1); experiment: nanoDSF
# [4] = target: soluble, disulfide-crosslinked HIV-1 CA hexamer (A14C/E45C/W184A/M185A) (HIV-1); experiment: cryo-EM structure
# [5] = target: soluble, disulfide-crosslinked HIV-1 CA hexamer (A14C/E45C/W184A/M185A) (HIV-1); experiment: nanoDSF; remark: listed apart in the source
# [6] = Observation of proteolysis during protein preparation; format: physicochemical; settings: recombinant protein preparation from E. coli
# full-length recombinant PQBP1 (polyglutamine binding protein 1), sequence (O60828 whole entry): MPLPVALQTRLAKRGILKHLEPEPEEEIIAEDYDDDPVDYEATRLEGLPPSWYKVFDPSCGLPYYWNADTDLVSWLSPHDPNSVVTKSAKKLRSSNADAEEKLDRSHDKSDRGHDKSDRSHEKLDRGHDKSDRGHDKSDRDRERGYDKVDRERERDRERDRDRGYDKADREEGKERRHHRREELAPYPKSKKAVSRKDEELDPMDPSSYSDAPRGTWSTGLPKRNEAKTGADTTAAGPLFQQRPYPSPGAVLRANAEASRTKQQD
# PQBP1 Nt peptide (residues 1–46), sequence (O60828 1-46): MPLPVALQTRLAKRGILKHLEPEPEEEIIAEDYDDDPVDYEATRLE
molecule,measurement,setting,value
Ac-EIIAEDYDDDPVDYE-NH2 [15–6],Kd,[1],54 ± 0.4 nM
full-length recombinant PQBP1 (polyglutamine binding protein 1) (from UniProt O60828 1-265) (natural protein),percent of input pelleted with the CA tubes,[2],17%
same,shift in apparent Tm of CA,[3],2 °C
"soluble, disulfide-crosslinked HIV-1 CA hexamer (A14C/E45C/W184A/M185A) (complex)",stoichiometry N,[4],6
PQBP1 Nt peptide (residues 1–46) (from UniProt O60828 1-46),Kd,[3],503 nM
Ac-EIIAEDYDDDPVDYE-NH2 [PQBP1 15-mer peptide 15–6],Kd,[5],54 nM
"DE-to-G: recombinant DE-to-G PQBP1 mutant protein (protein, left off: His-tag (with Gly-Gly linker), C-terminal, state not stated) MPLPVALQTRLAKRGILKHLEPEPGGGIIAEDYGGGPVDYEATRLEGLPPSWYKVFDPSCGLPYYWNADTDLVSWLSPHDPNSVVTKSAKKLRSSNADAEEKLDRSHDKSDRGHDKSDRSHEKLDRGHDKSDRGHDKSDRDRERGYDKVDRERERDRERDRDRGYDKADREEGKERRHHRREELAPYPKSKKAVSRKDEELDPMDPSSYSDAPRGTWSTGLPKRNEAKTGADTTAAGPLFQQRPYPSPGAVLRANAEASRTKQQD",Susceptibility to proteolysis,[6],prone to proteolysis
